Eight molecules from patent publication US20220411483A1 (Chugai, published 2022) can be followed below.

Assay [1] concerns the target T1, FcγRIa extracellular domain with C-terminal His tag (human, UniProt P12314 16-292).
T1 construct: also called FcgRIa; CD64; not shown: His tag at the C terminus
As to the kind of experiment: SPR, antibody captured, FcgR analyte. A general note: SPR reads the build-up and loss of mass on a sensor chip optically.

In assay [2] the target is T2, FcγRIIb extracellular domain with C-terminal His tag (human, UniProt P31994 43-217).
T2 construct: extracellular domain; also called FcgRIIb; not shown: His tag at the C terminus
T2 sequence (looked up): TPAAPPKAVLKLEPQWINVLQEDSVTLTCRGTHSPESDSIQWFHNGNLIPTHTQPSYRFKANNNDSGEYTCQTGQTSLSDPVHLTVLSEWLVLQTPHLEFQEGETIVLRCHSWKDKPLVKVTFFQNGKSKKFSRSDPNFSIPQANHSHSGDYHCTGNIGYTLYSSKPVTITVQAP
Nature of the assay: SPR, antibody captured, FcgR analyte.

In assay [3] the target is T3, FcγRIIa R type extracellular domain with C-terminal His tag (human, UniProt P12318 34-217).
T3 construct: extracellular domain; also called FcgRIIaR; not shown: His tag at the C terminus
T3 sequence (looked up): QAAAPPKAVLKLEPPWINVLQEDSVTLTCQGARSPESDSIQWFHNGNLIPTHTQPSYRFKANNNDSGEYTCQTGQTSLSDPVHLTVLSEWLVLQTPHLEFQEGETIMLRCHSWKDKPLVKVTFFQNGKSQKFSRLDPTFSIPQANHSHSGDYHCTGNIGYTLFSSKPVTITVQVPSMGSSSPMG
Nature of the assay: SPR, antibody captured, FcgR analyte.

Assay [4] addresses T4, FcγRIIa H type extracellular domain with C-terminal His tag (human, UniProt P12318 34-217).
T4 construct: extracellular domain; also called FcgRIIaH; not shown: His tag at the C terminus
T4 sequence (looked up): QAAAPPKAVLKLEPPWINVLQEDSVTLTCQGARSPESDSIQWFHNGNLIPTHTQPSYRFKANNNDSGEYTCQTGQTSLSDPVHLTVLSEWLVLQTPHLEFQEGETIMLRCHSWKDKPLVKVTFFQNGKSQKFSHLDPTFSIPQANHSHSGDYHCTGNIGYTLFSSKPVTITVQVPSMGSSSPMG
As to the kind of experiment: SPR, antibody captured, FcgR analyte.

Assay [5] addresses T2, FcγRIIb extracellular domain with …. As to the kind of experiment: SPR; KD of IL6R-B3/IL6R-L divided by KD of variant.
Assay [6] has as its target T3, FcγRIIa R type extracellular domain …. Nature of the assay: SPR; KD of IL6R-B3/IL6R-L divided by KD of variant.

T1 sequence (P12314 16-292): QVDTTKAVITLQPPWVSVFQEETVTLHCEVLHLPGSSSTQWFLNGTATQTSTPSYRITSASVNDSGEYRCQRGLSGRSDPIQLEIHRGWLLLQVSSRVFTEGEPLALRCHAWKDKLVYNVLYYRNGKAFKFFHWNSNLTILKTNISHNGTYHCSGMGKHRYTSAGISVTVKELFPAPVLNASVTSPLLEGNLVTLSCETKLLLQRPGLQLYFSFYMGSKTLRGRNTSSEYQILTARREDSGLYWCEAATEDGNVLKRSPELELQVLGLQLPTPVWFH

B1: IL6R-BP488/IL6R-L (antibody, human IgG1, kappa, name in EU numbering)
heavy: QVQLQESGPGLVKPSETLSLTCAVSGHSISHDHAWSWVRQPPGEGLEWIGFISYSGITNYNPSLQGRVTISRDNSKNTLYLQMNSLRAEDTAVYYCARSLARTTAMDYWGEGTLVTVSSASTKGPSVFPLAPSSKSTSGGTAALGCLVKDYFPEPVTVSWNSGALTSGVHTFPAVLQSSGLYSLSSVVTVPSSSLGTQTYICNVNHKPSNTKVDKKVEPKSCDKTHTCPPCPAPDLLGDDSVFLFPPKPKDTLMISRTPEVTCVVIDVAEEDGEVKFNWYVDGVEVHNAKTKPREEQDNSTYRVVSVLTVLHQDWLNGKEYKCKVSNKALPRPIEKTISKAKGQPREPQVYTLPPSRDELTKNQVSLTCLVKGFYPSDIAVEWESNGQPENNYKTTPPVLDSDGSFFLYSKLTVDKSRWQQGNVFSCSVMHEALHNHYTQESLSLSP
light: not shown
notes: human IgG1
Take B1: the Kd in assay [1] came out at 2.2 nM; in assay [2], 1.9 nM; in assay [3], 74 nM; in assay [4], 1600 nM. For the same molecule, in assay [5], the “Relative FcgRIIb-binding Activity” value was 1670. Moreover, in assay [6], the “Relative FcgRIIaR-binding Activity” value was determined as 14.6.

B2: IL6R-BP487/IL6R-L (antibody, human IgG1, kappa, name in EU numbering)
heavy: QVQLQESGPGLVKPSETLSLTCAVSGHSISHDHAWSWVRQPPGEGLEWIGFISYSGITNYNPSLQGRVTISRDNSKNTLYLQMNSLRAEDTAVYYCARSLARTTAMDYWGEGTLVTVSSASTKGPSVFPLAPSSKSTSGGTAALGCLVKDYFPEPVTVSWNSGALTSGVHTFPAVLQSSGLYSLSSVVTVPSSSLGTQTYICNVNHKPSNTKVDKKVEPKSCDKTHTCPPCPAPDLLGDDSVFLFPPKPKDTLMISRTPEVTCVVIDVAEEDGEVKFNWYVDGVEVHNAKTKPREEQYNSTYRVVSVLTVLHQDWLNGKEYKCKVSNKALPRPIEKTISKAKGQPREPQVYTLPPSRDELTKNQVSLTCLVKGFYPSDIAVEWESNGQPENNYKTTPMVLDSDGSFFLYSKLTVDKSRWQQGNVFSCSVMHEALHNHYTQESLSLSP
light: not shown
notes: human IgG1
For B2, the Kd amounted to 1.2 nM in assay [1], 1.2 nM in assay [2], 39 nM in assay [3] and 840 nM in assay [4]. Besides, in assay [5], the “Relative FcgRIIb-binding Activity” value came to 2690. Further, the “Relative FcgRIIaR-binding Activity” value in assay [6] came out at 27.8.

B3: IL6R-BP491/IL6R-L (antibody, human IgG1, kappa, name in EU numbering)
heavy: QVQLQESGPGLVKPSETLSLTCAVSGHSISHDHAWSWVRQPPGEGLEWIGFISYSGITNYNPSLQGRVTISRDNSKNTLYLQMNSLRAEDTAVYYCARSLARTTAMDYWGEGTLVTVSSASTKGPSVFPLAPSSKSTSGGTAALGCLVKDYFPEPVTVSWNSGALTSGVHTFPAVLQSSGLYSLSSVVTVPSSSLGTQTYICNVNHKPSNTKVDKKVEPKSCDKTHTCPPCPAPELLGDDSVFLFPPKPKDTLMISRTPEVTCVVIDVAEEDGEVKFNWYVDGVEVHNAKTKPREEQDNSTYRVVSVLTVLHQDWLNGKEYKCKVSNKALPRPIEKTISKAKGQPREPQVYTLPPSRDELTKNQVSLTCLVKGFYPSDIAVEWESNGQPENNYKTTPPVLDSDGSFFLYSKLTVDKSRWQQGNVFSCSVMHEALHNHYTQESLSLSP
light: not shown
notes: human IgG1
Take B3: the Kd stood at 5.3 nM in assay [1], 3 nM in assay [2], 120 nM in assay [3] and 2200 nM in assay [4]. Also, the “Relative FcgRIIb-binding Activity” value in assay [5] was 1020. Besides, the “Relative FcgRIIaR-binding Activity” value in assay [6] was found to be 9.2.

B4: IL6R-BP496/IL6R-L (antibody, human IgG1, kappa, name in EU numbering)
heavy: QVQLQESGPGLVKPSETLSLTCAVSGHSISHDHAWSWVRQPPGEGLEWIGFISYSGITNYNPSLQGRVTISRDNSKNTLYLQMNSLRAEDTAVYYCARSLARTTAMDYWGEGTLVTVSSASTKGPSVFPLAPSSKSTSGGTAALGCLVKDYFPEPVTVSWNSGALTSGVHTFPAVLQSSGLYSLSSVVTVPSSSLGTQTYICNVNHKPSNTKVDKKVEPKSCDKTHTCPPCPAPDLLGDDSVFLFPPKPKDTLMISRTPEVTCVVIDVAEEDGEVKFNWYVDGVEVHNAKTKPREEQDNSTYRVVSVLTVLHQDWLNGKEYKCKVSNKALPAPIEKTISKAKGQPREPQVYTLPPSRDELTKNQVSLTCLVKGFYPSDIAVEWESNGQPENNYKTTPPVLDSDGSFFLYSKLTVDKSRWQQGNVFSCSVMHEALHNHYTQESLSLSP
light: not shown
notes: human IgG1
Take B4: the Kd in assay [1] was found to be 1.2 nM; in assay [2], 18 nM; in assay [3] it was 470 nM; in assay [4], 3700 nM. For the same molecule, in assay [5], the “Relative FcgRIIb-binding Activity” value stood at 168. The “Relative FcgRIIaR-binding Activity” value in assay [6] came to 2.3.

B5: IL6R-BP498/IL6R-L (antibody, human IgG1, kappa, name in EU numbering)
heavy: QVQLQESGPGLVKPSETLSLTCAVSGHSISHDHAWSWVRQPPGEGLEWIGFISYSGITNYNPSLQGRVTISRDNSKNTLYLQMNSLRAEDTAVYYCARSLARTTAMDYWGEGTLVTVSSASTKGPSVFPLAPSSKSTSGGTAALGCLVKDYFPEPVTVSWNSGALTSGVHTFPAVLQSSGLYSLSSVVTVPSSSLGTQTYICNVNHKPSNTKVDKKVEPKSCDKTHTCPPCPAPDLLGDDSVFLFPPKPKDTLMISRTPEVTCVVIDVAEEDGEVKFNWYVDGVEVHNAKTKPREEQYNSTYRVVSVLTVLHQDWLNGKEYKCKVSNKALPRPIEKTISKAKGQPREPQVYTLPPSRDELTKNQVSLTCLVKGFYPSDIAVEWESNGQPENNYKTTPLVLDSDGSFFLYSKLTVDKSRWQQGNVFSCSVMHEALHNHYTQESLSLSP
light: not shown
notes: human IgG1
Consider B5, for which the dissociation constant Kd in assay [1] turned out to be 1.3 nM; in assay [2], 1.7 nM; in assay [3] it was 51 nM; in assay [4] it was 930 nM. Further, in assay [5], the “Relative FcgRIIb-binding Activity” value is 1870. In addition, the “Relative FcgRIIaR-binding Activity” value in assay [6] was 21.3.

B6: IL6R-BP489/IL6R-L (antibody, human IgG1, kappa, name in EU numbering)
heavy: QVQLQESGPGLVKPSETLSLTCAVSGHSISHDHAWSWVRQPPGEGLEWIGFISYSGITNYNPSLQGRVTISRDNSKNTLYLQMNSLRAEDTAVYYCARSLARTTAMDYWGEGTLVTVSSASTKGPSVFPLAPSSKSTSGGTAALGCLVKDYFPEPVTVSWNSGALTSGVHTFPAVLQSSGLYSLSSVVTVPSSSLGTQTYICNVNHKPSNTKVDKKVEPKSCDKTHTCPPCPAPDLLGDDSVFLFPPKPKDTLMISRTPEVTCVVIDVAEEDGEVKFNWYVDGVEVHNAKTKPREEQDNSTYRVVSVLTVLHQDWLNGKEYKCKVSNKALPRPIEKTISKAKGQPREPQVYTLPPSRDELTKNQVSLTCLVKGFYPSDIAVEWESNGQPENNYKTTPMVLDSDGSFFLYSKLTVDKSRWQQGNVFSCSVMHEALHNHYTQESLSLSP
light: not shown
notes: human IgG1
For B6, the Kd in assay [1] is 1.3 nM; in assay [2], 1 nM; in assay [3], 43 nM; in assay [4], 870 nM. The “Relative FcgRIIb-binding Activity” value in assay [5] stood at 3090. The “Relative FcgRIIaR-binding Activity” value in assay [6] came out at 25.2.

B7: IL6R-BP497/IL6R-L (antibody, human IgG1, kappa, name in EU numbering)
heavy: QVQLQESGPGLVKPSETLSLTCAVSGHSISHDHAWSWVRQPPGEGLEWIGFISYSGITNYNPSLQGRVTISRDNSKNTLYLQMNSLRAEDTAVYYCARSLARTTAMDYWGEGTLVTVSSASTKGPSVFPLAPSSKSTSGGTAALGCLVKDYFPEPVTVSWNSGALTSGVHTFPAVLQSSGLYSLSSVVTVPSSSLGTQTYICNVNHKPSNTKVDKKVEPKSCDKTHTCPPCPAPDLLGDDSVFLFPPKPKDTLMISRTPEVTCVVIDVAEEDGEVKFNWYVDGVEVHNAKTKPREEQYNSTYRVVSVLTVLHQDWLNGKEYKCKVSNKGLPRPIEKTISKAKGQPREPQVYTLPPSRDELTKNQVSLTCLVKGFYPSDIAVEWESNGQPENNYKTTPPVLDSDGSFFLYSKLTVDKSRWQQGNVFSCSVMHEALHNHYTQESLSLSP
light: not shown
notes: human IgG1
Regarding B7, the Kd is 2.1 nM in assay [1], 4.1 nM in assay [2], 85 nM in assay [3] and 960 nM in assay [4]. For the same molecule, the “Relative FcgRIIb-binding Activity” value in assay [5] was 761. In addition, the “Relative FcgRIIaR-binding Activity” value in assay [6] worked out at 12.6.

B8: IL6R-BP499/IL6R-L (antibody, human IgG1, kappa, name in EU numbering)
heavy: QVQLQESGPGLVKPSETLSLTCAVSGHSISHDHAWSWVRQPPGEGLEWIGFISYSGITNYNPSLQGRVTISRDNSKNTLYLQMNSLRAEDTAVYYCARSLARTTAMDYWGEGTLVTVSSASTKGPSVFPLAPSSKSTSGGTAALGCLVKDYFPEPVTVSWNSGALTSGVHTFPAVLQSSGLYSLSSVVTVPSSSLGTQTYICNVNHKPSNTKVDKKVEPKSCDKTHTCPPCPAPDLLGDDSVFLFPPKPKDTLMISRTPEVTCVVIDVAEEDGEVKFNWYVDGVEVHNAKTKPREEQDNSTYRVVSVLTVLHQDWLNGKEYKCKVSNKALPRPIEKTISKAKGQPREPQVYTLPPSRDELTKNQVSLTCLVKGFYPSDIAVEWESNGQPENNYKTTPLVLDSDGSFFLYSKLTVDKSRWQQGNVFSCSVMHEALHNHYTQESLSLSP
light: not shown
notes: human IgG1
Regarding B8, the Kd in assay [1] amounted to 1.2 nM; in assay [2] it was 1.5 nM; in assay [3], 49 nM; in assay [4] it was 1000 nM. Also, the “Relative FcgRIIb-binding Activity” value in assay [5] amounted to 2120. In addition, the “Relative FcgRIIaR-binding Activity” value in assay [6] was 21.9.

Usually Kd stands for the constant that tells how readily two partners part at equilibrium.
